In patent publication US20180264123A1 (UNIVERSITY OF MIYAZAKI, published 2018):
Bridge positions count the residues as written; N and C are the ends. Xyl‑4‑branched CH3O‑PEG (40k)‑CH2 = xylose skeleton-containing 4-branched CH3O-PEG (40k)-CH2 (alkylamine-linked PEG, 40k)

Molecular target: AM receptor
Assay: cell-based or functional assay

Binder	Intracellular cAMP concentration-increasing effect (%) vs h.AM (1-52); 10^-8 mol/L, HEK293 cells [%]
CH3O-PEG (5k)-(CH2)5-CO-^αNH-(h.AM (1-52)) (disulfide 16-21) peptide: {CH3O‑PEG (5k)‑(CH2)5‑CO‑}-YRQSMNNFQGLRSFGCRFGTCTVQKLAHQIYQFTDKDKDNVAPRSKISPQGY-NH2	81
{CH3O‑PEG (5k)‑(CH2)2‑CH2‑}-LRSFGCRFGTCTVQKLAHQIYQFTDKDKDNVAPRSKISPQGY-NH2 (disulfide 6-11) [CH3O-PEG (5k)-(CH2)2-CH2-^αNH-(h.AM (11-52))]	80
{CH3O‑PEG (5k)‑(CH2)2‑CH2‑}-CRFGTCTVQKLAHQIYQFTDKDKDNVAPRSKISPQGY-NH2 (disulfide 1-6) [CH3O-PEG (5k)-(CH2)2-CH2-^αNH-(h.AM (16-52))]	39
CH3O-PEG (40k)-(CH2)2-CH2-^αNH-(h.AM (1-52)) (disulfide 16-21) peptide: {CH3O‑PEG (40k)‑(CH2)2‑CH2‑}-YRQSMNNFQGLRSFGCRFGTCTVQKLAHQIYQFTDKDKDNVAPRSKISPQGY-NH2	101
{CH3O‑PEG (20k)‑(CH2)2‑CH2‑}-LRSFGCRFGTCTVQKLAHQIYQFTDKDKDNVAPRSKISPQGY-NH2 (disulfide 6-11) [CH3O-PEG (20k)-(CH2)2-CH2-^αNH-(h.AM (11-52))]	97
CH3O-PEG (20k)-(CH2)5-CO-^αNH-(h.AM (1-52)) (disulfide 16-21) peptide: {CH3O‑PEG (20k)‑(CH2)5‑CO‑}-YRQSMNNFQGLRSFGCRFGTCTVQKLAHQIYQFTDKDKDNVAPRSKISPQGY-NH2	67
CH3O-PEG (30k)-(CH2)2-CH2-^αNH-(h.AM (1-52)) (disulfide 16-21) peptide: {CH3O‑PEG (30k)‑(CH2)2‑CH2‑}-YRQSMNNFQGLRSFGCRFGTCTVQKLAHQIYQFTDKDKDNVAPRSKISPQGY-NH2	100
CH3O-PEG (10k)-(CH2)2-CH2-^αNH-(h.AM (1-52)) (disulfide 16-21) peptide: {CH3O‑PEG (10k)‑(CH2)2‑CH2‑}-YRQSMNNFQGLRSFGCRFGTCTVQKLAHQIYQFTDKDKDNVAPRSKISPQGY-NH2	101
{CH3O‑PEG (5k)‑(CH2)2‑CH2‑}-NNFQGLRSFGCRFGTCTVQKLAHQIYQFTDKDKDNVAPRSKISPQGY-NH2 (disulfide 11-16) [CH3O-PEG (5k)-(CH2)2-CH2-^αNH-(h.AM (6-52))]	90
{GL‑2‑branched CH3O‑PEG (20k)‑CO‑}-CRFGTCTVQKLAHQIYQFTDKDKDNVAPRSKISPQGY-NH2 (disulfide 1-6) [GL-2-branched CH3O-PEG (20k)-CO-^αNH-(h.AM (16-52))]	96
{CH3O‑PEG (20k)‑(CH2)2‑CH2‑}-CRFGTCTVQKLAHQIYQFTDKDKDNVAPRSKISPQGY-NH2 (disulfide 1-6) [CH3O-PEG (20k)-(CH2)2-CH2-^αNH-(h.AM (16-52))]	97
CH3O-PEG (20k)-(CH2)2-CH2-^αNH-(h.AM (1-52)) (disulfide 16-21) peptide: {CH3O‑PEG (20k)‑(CH2)2‑CH2‑}-YRQSMNNFQGLRSFGCRFGTCTVQKLAHQIYQFTDKDKDNVAPRSKISPQGY-NH2	100
{GL‑2‑branched CH3O‑PEG (20k)‑CO‑}-LRSFGCRFGTCTVQKLAHQIYQFTDKDKDNVAPRSKISPQGY-NH2 (disulfide 6-11) [GL-2-branched CH3O-PEG (20k)-CO-^αNH-(h.AM (11-52))]	104
GL-2-branched CH3O-PEG (20k)-CO-^αNH-(h.AM (1-52)) (disulfide 16-21) peptide: {GL‑2‑branched CH3O‑PEG (20k)‑CO‑}-YRQSMNNFQGLRSFGCRFGTCTVQKLAHQIYQFTDKDKDNVAPRSKISPQGY-NH2	99
CH3O-PEG (20k)-CO-^αNH-(h.AM (1-52)) (disulfide 16-21) peptide: {CH3O‑PEG (20k)‑CO‑}-YRQSMNNFQGLRSFGCRFGTCTVQKLAHQIYQFTDKDKDNVAPRSKISPQGY-NH2	100
{GL‑2‑branched CH3O‑PEG (20k)‑CO‑}-NNFQGLRSFGCRFGTCTVQKLAHQIYQFTDKDKDNVAPRSKISPQGY-NH2 (disulfide 11-16) [GL-2-branched CH3O-PEG (20k)-CO-^αNH-(h.AM (6-52))]	99

Next, values leading:

Intracellular cAMP concentration-increasing effect (%) vs h.AM (1-52); 10^-8 mol/L, HEK293 cells [%]	Binder
102	Lys-2-branched CH3O-PEG (40k)-CH2-^αNH-(h.AM (1-52)) (N-terminal α-amino group alkylamine-linked to lysine skeleton-containing 2-branched CH3O-PEG (40k)-CH2-; Cys16-Cys21 disulfide; C-terminal amide) peptide: YRQSMNNFQGLRSFGCRFGTCTVQKLAHQIYQFTDKDKDNVAPRSKISPQGY
81	Xyl-4-branched CH3O-PEG (40k)-CH2-^αNH-(h.AM (1-52)) (disulfide 16-21) peptide: {Xyl‑4‑branched CH3O‑PEG (40k)‑CH2}-YRQSMNNFQGLRSFGCRFGTCTVQKLAHQIYQFTDKDKDNVAPRSKISPQGY-NH2
87	GL-2-branched CH3O-PEG (40k)-CO-^αNH-(h.AM (1-52)) (disulfide 16-21) peptide: {GL‑2‑branched CH3O‑PEG (40k)‑CO‑}-YRQSMNNFQGLRSFGCRFGTCTVQKLAHQIYQFTDKDKDNVAPRSKISPQGY-NH2
94	GL-2-branched CH3O-PEG (80k)-CH2-^αNH-(h.AM (1-52)) (disulfide 16-21) peptide: {GL‑2‑branched CH3O‑PEG (80k)‑CH2‑}-YRQSMNNFQGLRSFGCRFGTCTVQKLAHQIYQFTDKDKDNVAPRSKISPQGY-NH2
80	GL-3-branched CH3O-PEG (50k)-CH2-^αNH-(h.AM (1-52)) (disulfide 16-21) peptide: {GL‑3‑branched CH3O‑PEG (50k)‑CH2‑}-YRQSMNNFQGLRSFGCRFGTCTVQKLAHQIYQFTDKDKDNVAPRSKISPQGY-NH2
96	GL-2-branched CH3O-PEG (40k)-CH2-^αNH-(h.AM (1-52)) (disulfide 16-21) peptide: {GL‑2‑branched CH3O‑PEG (40k)‑CH2‑}-YRQSMNNFQGLRSFGCRFGTCTVQKLAHQIYQFTDKDKDNVAPRSKISPQGY-NH2
95	GL-4-branched CH3O-PEG (40k)-CH2-^αNH-(h.AM (1-52)) (disulfide 16-21) peptide: {GL‑4‑branched CH3O‑PEG (40k)‑CH2‑}-YRQSMNNFQGLRSFGCRFGTCTVQKLAHQIYQFTDKDKDNVAPRSKISPQGY-NH2
85	GL-4-branched CH3O-PEG (40k)-CO-^αNH-(h.AM (1-52)) (disulfide 16-21) peptide: {GL‑4‑branched CH3O‑PEG (40k)‑CO‑}-YRQSMNNFQGLRSFGCRFGTCTVQKLAHQIYQFTDKDKDNVAPRSKISPQGY-NH2
83	{GL‑4‑branched CH3O‑PEG (40k)‑CO‑}-NNFQGLRSFGCRFGTCTVQKLAHQIYQFTDKDKDNVAPRSKISPQGY-NH2 (disulfide 11-16) [GL-4-branched CH3O-PEG (40k)-CO-^αNH-(h.AM (6-52))]
77	{GL‑2‑branched CH3O‑PEG (40k)‑CH2‑}-NNFQGLRSFGCRFGTCTVQKLAHQIYQFTDKDKDNVAPRSKISPQGY-NH2 (disulfide 11-16) [GL-2-branched CH3O-PEG (40k)-CH2-^αNH-(h.AM (6-52))]
61	{GL‑2‑branched CH3O‑PEG (40k)‑CO‑}-CRFGTCTVQKLAHQIYQFTDKDKDNVAPRSKISPQGY-NH2 (disulfide 1-6) [GL-2-branched CH3O-PEG (40k)-CO-^αNH-(h.AM (16-52))]
99	GL-2-branched CH3O-PEG (60k)-CH2-^αNH-(h.AM (1-52)) (disulfide 16-21) peptide: {GL‑2‑branched CH3O‑PEG (60k)‑CH2‑}-YRQSMNNFQGLRSFGCRFGTCTVQKLAHQIYQFTDKDKDNVAPRSKISPQGY-NH2
